In US20210371505A1 (Regeneron, published 2021):

Assays:
Assay in all cases: cell-based or functional assay
[1] = biological target: Hemagglutinin of influenza virus A/Shanghai/01/2013-PR8 (H7N9) (Influenza A virus …)
[2] = biological target: Hemagglutinin of influenza virus A/Philippines/01/1982 (H3N2) (Influenza A virus A/Philippines/01/1982 …)
[3] = biological target: T1, Hemagglutinin of influenza virus A/Aichi/02/1968-PR8-X31 (H3N2) (Influenza A virus …, UniProt P03437 17-566)
[4] = biological target: T1, Hemagglutinin of influenza virus …; remark: listed apart in the source

B1: H1H14611N2 (antibody, V domains shown)
VH: EVQLVESGGGLVKPGGSLRLSCAASGFTFSGFSMNWVRQVPGKGLEWVSSISTSGNYMYYADSVKGRFTISRDNAKKSFSLQMNSLRAEDSAIYYCARGGGYNWNLFDYWGQGSLVTVSS
VL: EIVLTQSPGTLSLSPGERATLSCRASQSLNSNYLAWYQQKPGQAPRLLIYGASSRATGIPDRFSGSGSGTDFTLTITRLESEDFAVYYCQQYGNSPLTFGGGTKVEIK
- IC50 of neutralization, cell viability microneutralization assay on MDCK cells [1]: 405 nM
- IC50 of neutralization, cell viability microneutralization assay on MDCK cells [2]: 68.4 nM
- IC50 of neutralization, cell viability microneutralization assay on MDCK cells [3]: 7.83 nM
- EC50, complement-dependent cytotoxicity of virus-infected MDCK cells [4]: 140 nM
